Measurements: paper PMC9317729

Target: S-RBD-Rhizavidin fusion protein (SARS-CoV-2 | not stated) (UniProt P0DTC2)
Assay: SEC-MALS; HPLC-SEC on AdvanceBio SEC 1.9 μm column, 0.4 mL/min, 20 mM HEPES, 100 mM sodium chloride, 25 °C; about 20 micrograms injected; MALS with first order Zimm fit

“S-RBD-Rhizavidin fusion protein (from UniProt P0DTC2 331-524)” showed a stoichiometry N of 2.
